Data on 30 sequences can be found in the nanobody polyreactivity screen of Harvey et al. (2022).

A short description of this series: yeast display, Sf9 membrane polyspecificity reagent, FACS + sequencing; frameworks hold sequencing errors. The method in brief:
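Nanobodies came from a synthetic yeast display library in Saccharomyces cerevisiae BJ5465, induced with galactose for 36–48 hours and stained for 1 hour at 4 °C with 10% biotinylated, detergent-solubilized Sf9 membrane reagent. Cells were enriched on streptavidin microbeads and then FACS-sorted, with low and high (top ~1%) gates set on anti-HA fluorescence for expression and streptavidin fluorescence for reagent binding. Each polyreactivity label reflects the gate a clone came from. Genes were amplified by colony PCR, sequenced by MiSeq 2 × 250 and filtered by CDR length.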
“QVQLVESGGGLVQAGGSLRLSCAACGFIFSSNAMGWYTPAPGNERELVAAITGGGGRTRYADSVKGRFTISRDNAKNSVYLQMNSLKPEDTAVYYCNTVYYVYYRSYSYKGDYWGQGTQVTVSS”: the “polyreactivity (PSR sort gate)” value was “high polyreactivity”.
Under “QVQLVESGGGLVQAGGSLRLSCAACGFIFYKNAMGWYRQAPGKERELFAAISGGGGSTSYADSVKGRFTISRDNAKNTVYLQMNSLKPEDTAVYYCATYSFRRTGWRYDYWGQGTQVTVSS” stands “high polyreactivity”; under “QVQLVESGGGLVQAGGSLRLSCAACGFTFTAYAMVWYRQAPGKERELVAAISYRGGRTNYAYSVKGRFTISRDNAKNTVYLQMNSLKPEDTAVYYCAARPRISTREMDYWRQGTQVTVSS”, “high polyreactivity”.
With “QVQLVESGGGLVQAGGSLRLSCAACGGTFGNYAMGWYRQAPGKDRELVAAISTRGGSTYYADSVKGRFTISRDNAKNTVYLQMNSLKPEDTAVYYCNARIKRPRGVYGGDYWGQGTQVTVSS” the entry was “high polyreactivity”; with “QVQLVESGGGLVQAGGSLRLSCAACGITWGYAMGWYRQAPGKERELVAVIRWSGTSTSYADSVKGRYTISRAKAKNTVYLQMNSLKPEDTAVYYCNAAWYDQYGDSDGDDYWGQGTQVTVSS”, “low polyreactivity”; with “QVQLVESGGGLVQAGGSLRLSCAACGRIFTYNAMGWYRQAPGKERELVAAISSSGGRTYYADSVKGRFTISRDNAKNTLYLEMNSLKPEDTAVYYCARAYREGGRTQRGDYWGQGTQVTVSS”, “high polyreactivity”.
Under “QVQLVESGGGLVQAGGSLRLSCAACGRIFVRNAMGWYRQAPGKERELVADITNGGSTNYADSVKGRFTISRDNAKNTVYLQMNSLKPEDTAVYYCGAVYYSTDYYFWYDYWGQGTQVTVSS” stands “low polyreactivity”.
As to “QVQLVESGGGLVQAGGSLRLSCAACGRTSSIYAMGWYRQAPGKERELVATITGGAVSTSYADSVKGRFTISRDNAKYTVYLQMNSLKPEDSAVYYCAADHWRYRSRPVNYWRQGTQVTVSS”, the “polyreactivity (PSR sort gate)” value was “high polyreactivity”.
With “QVQLVESGGGLVQAGGSLRLSCAACGSIFKGNAMGWYRQAPGKERELVARISSGGSTYYADSVKGRFTISRDNAKNTVYLQMNSLKPEDTAVYYCAARVYTSYIRQYTYSYYYWGQGTQVTVSS” the entry was “high polyreactivity”.
With “QVQLVESGGGLVQAGGSLRLSCAACGSILKQYAMGWYRQAPGKERVLDAAITWRGTGTYYADSVKGRFTISRDNAKKTVYLLMNSLQAEDTAVSYCAAKWYRRTYGYLPYTGIVNYDYWGQGTQLTVSS” the entry was “high polyreactivity”.
With “QVQLVESGGGLVQAGGSLRLSCAACGSTFRYYAMGWYRQAPGKERELVAAITYSGGSTYYADSVKGRFTISRDNAKNTVYLQMNSLKPEDTAVYYCNADFLPRWYPPPYDYWGQGTQVTVSS” the entry was “high polyreactivity”.
As for “QVQLVESGGGLVQAGGSLRLSCAACGSTFYVNTMGWYRQAPGKERELVAAITDSGVGTYADSVKGRFTISRDNAKNTVYLQMNSLKPEDTAVYYCNADGRYYDDETYDYWGQGTQVTVSS”, the “polyreactivity (PSR sort gate)” value is “low polyreactivity”.
With “QVQLVESGGGLVQAGGSLRLSCAACVRTFSGYAMGWYRPAPGKERELVAAIRWSGGSTYYADSVKGRFTISRDNAKNTVYLQMNSLKPEDTAVYYCATRDYYYRYGYWGQGTQVTVSS” the entry was “high polyreactivity”; with “QVQLVESGGGLVQAGGSLRLSCAAFGFTFNSYAMGWNRQAPGKERELVAGITSSGGGTYYADSVKGRFTISRDNAKNTVYLQMNSLKPEDTAVYYCNTYSYLFSRYGFWGQGTQVTVSS”, “high polyreactivity”; with “QVQLVESGGGLVQAGGSLRLSCAAFGSIFGYNAMGSYRQAPGKEREFVAAISWSGGRTYYADSVKGRFTISRDNAKNTVYLQMNSLKPEDTAVYYCAAPSRPAPRFDYWGQGTQVTVSS”, “low polyreactivity”.
With “QVQLVESGGGLVQAGGSLRLSCAAPGSTIRANAMGWYRQAPGKEMELVAAITKNGGSTYYADSVKGRFTISRDNAKNTVYLQMNSLKPEDTAVYYCAARRSSRRPPYYYWGQGTQVTVSS”, the “polyreactivity (PSR sort gate)” value is recorded as “high polyreactivity”.
Under “QVQLVESGGGLVQAGGSLRLSCAASAFILQRNAMGWYRQAHGKERELVAAISSRGGSTYYADSVKGRFTISRDNAKNTVYLQMNSLKPEDTAVYYCNRRSRAHGYGSQYDYWGQGTQVTVSS” stands “low polyreactivity”; under “QVQLVESGGGLVQAGGSLRLSCAASAIIFDGNTMGWYRQAPGKEREFVAAISRNGGTTSYADSVKGRFTISRDNAKNTVYLQMNSLKPEDTAVYYCAADVETFWGWRYEYWGQGTQVTVSS”, “low polyreactivity”.
With “QVQLVESGGGLVQAGGSLRLSCAASAIIFYKNAMGWYRQAPGKERELVAAITRGGSTNYADSVKGRFTISRDNAKNTVYLQMNSLKPEDTAVYYCDKRWFYTRYPTYDYWGQGTQVTVSS” the entry was “low polyreactivity”.
Under “QVQLVESGGGLVQAGGSLRLSCAASARIFFTYVMGWYRQAHGKEREFVAAITFSDGTTYYADSVKGRFTISRDNAKNTVYLQMNSLKPEDTAVYYCNTDSFYGFVYPWTISSEVDYWGQGTQVTVSS” stands “low polyreactivity”; under “QVQLVESGGGLVQAGGSLRLSCAASARIFPWNAMGWYRQAPGKERELVAAITSGGGTTYYADSVKGRFTISRDNAKNTVYLQMNSLKPEDTAVYYCATPWEGSSTADYRISVYYWGQGTQVTVSS”, “low polyreactivity”.
With “QVQLVESGGGLVQAGGSLRLSCAASARIFYAYTMGWYRQAPGKERELVAAISGSGSTYYADSVKGRFTISRDNAMNTFFLQMNSLKPEDTAVYYCAADVTGGRKYDYWGQGTEVTVSS”, the “polyreactivity (PSR sort gate)” value was “low polyreactivity”.
With “QVQLVESGGGLVQAGGSLRLSCAASARTFATYAMGWYRHAPGKEWELVAGITSGGNTYYADSVKGRFTISRDNAKNTVYLQMNSLKPVDTAVYYCAADRVYLGLFRYEYWGQGTQVTVSS”, the “polyreactivity (PSR sort gate)” value was “high polyreactivity”.
Under “QVQLVESGGGLVQAGGSLRLSCAASARTFYYNGMGWYIQAPGKERELVAASSGGGSSTSYADSVKGRFTISRDNAKNTVYLQMNSLKPEDTAVYYCAAKYGALRYYKMYYWGQGTQVTVSS” stands “low polyreactivity”.
In the case of “QVQLVESGGGLVQAGGSLRLSCAASASIFDIYGMGWYRKAPGKERELVASISGGAGSTNYADSVKGRFTISRDNAKNTVYLQMNSLKPEDTAVYYCAADSADPTEYDYWGQGTQVTVSS”, the “polyreactivity (PSR sort gate)” value is reported as “low polyreactivity”.
Regarding “QVQLVESGGGLVQAGGSLRLSCAASASIFPDNTMGWYRQAPGKERELVAAIDGRGGTTYYADSVKGRFTISRDNAKNTVYLQMNSLKPEDTAVYYCARDIGHSARYDYWGQGTQVTVSS”, the “polyreactivity (PSR sort gate)” value is listed as “low polyreactivity”.
With “QVQLVESGGGLVQAGGSLRLSCAASASIFWYNSMGWYRQAPGKEREFVDSISGSGTSTYADSVKGRFTISRDNAKNTVYLQMNSLKPEDTAVYYCIAYYEYSWLYSNWLYGKYDYWGQGTQVTVSS” the entry was “low polyreactivity”; with “QVQLVESGGGLVQAGGSLRLSCAASASIISYYAKGWYRQAPGKERELVAAISGSGSRTYYADSVKGRFTISRDNAKNTVYLQMNSLKPEDTAVYYCAARSLYRGFGYWGQGTQVTVSS”, “high polyreactivity”.
Under “QVQLVESGGGLVQAGGSLRLSCAASASTFILSAMGWYRQAPGNERELVAAISSDGSTYYADSVKGRFTISRDNAKNTVYLQMNSLKPEDTAVYYCAAYGYDADTGYDYWGQGTQVTVSS” stands “low polyreactivity”; under “QVQLVESGGGLVQAGGSLRLSCAASASTFVYYAMGWYRQAPGKERELVAAISRSGTSTYYADSVKGRFTISRDNAKNTVYLQMNSLKPEDTAVFYCNARKKQGFDYWGQGTQVTVSS”, “high polyreactivity”.
